Laboratory results reported in patent US20260209362A1 (VIB VZW, published 2026).

T1: biotinylated recombinant human IL-12Rβ2 (human, UniProt Q99665 24-622, random biotinylated)
T1 construct: Recombinant protein produced in-house; also called hIL-12RB2; human IL-12RB2
T1 sequence: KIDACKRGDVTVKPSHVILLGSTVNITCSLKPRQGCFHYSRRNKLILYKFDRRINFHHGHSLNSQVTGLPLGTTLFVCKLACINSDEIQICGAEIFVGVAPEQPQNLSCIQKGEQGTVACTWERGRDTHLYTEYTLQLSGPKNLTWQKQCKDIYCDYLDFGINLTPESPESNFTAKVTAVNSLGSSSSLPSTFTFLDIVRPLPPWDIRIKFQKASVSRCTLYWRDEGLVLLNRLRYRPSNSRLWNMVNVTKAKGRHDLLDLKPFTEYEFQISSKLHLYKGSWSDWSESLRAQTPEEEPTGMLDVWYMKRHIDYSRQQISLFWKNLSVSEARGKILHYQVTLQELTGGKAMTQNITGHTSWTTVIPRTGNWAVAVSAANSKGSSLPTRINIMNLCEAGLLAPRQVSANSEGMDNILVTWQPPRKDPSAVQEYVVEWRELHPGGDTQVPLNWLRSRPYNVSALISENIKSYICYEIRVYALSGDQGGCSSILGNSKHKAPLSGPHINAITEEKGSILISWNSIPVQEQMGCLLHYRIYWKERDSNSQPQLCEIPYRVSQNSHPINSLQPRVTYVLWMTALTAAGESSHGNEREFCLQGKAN

T2: biotinylated recombinant mouse IL-12Rβ2 (mouse, UniProt P97378 24-637, random biotinylated)
T2 construct: Recombinant protein produced in-house; also called mIL-12RB2; mouse IL-12RB2
T2 sequence: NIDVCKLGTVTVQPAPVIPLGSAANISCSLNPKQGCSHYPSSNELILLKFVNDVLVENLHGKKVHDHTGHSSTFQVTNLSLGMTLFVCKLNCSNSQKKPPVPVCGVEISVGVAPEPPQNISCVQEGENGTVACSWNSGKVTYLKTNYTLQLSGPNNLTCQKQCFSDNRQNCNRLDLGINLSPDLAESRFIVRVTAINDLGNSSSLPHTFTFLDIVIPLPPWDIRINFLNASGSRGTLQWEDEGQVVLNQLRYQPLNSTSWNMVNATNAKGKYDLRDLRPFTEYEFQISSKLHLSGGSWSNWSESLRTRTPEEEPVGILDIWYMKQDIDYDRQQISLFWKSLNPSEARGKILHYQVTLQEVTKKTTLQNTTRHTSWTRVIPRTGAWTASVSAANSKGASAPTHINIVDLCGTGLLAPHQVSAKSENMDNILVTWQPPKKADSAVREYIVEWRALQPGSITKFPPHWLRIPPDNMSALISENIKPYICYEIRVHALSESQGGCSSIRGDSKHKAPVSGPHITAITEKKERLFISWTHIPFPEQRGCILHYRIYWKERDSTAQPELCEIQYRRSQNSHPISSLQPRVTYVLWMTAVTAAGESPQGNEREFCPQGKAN


What was measured:
[1] = target: T1, biotinylated recombinant human IL-12Rβ2; experiment: ELISA, P.E., biotinylated antigen
[2] = target: T2, biotinylated recombinant mouse IL-12Rβ2; experiment: ELISA, P.E., biotinylated antigen
[3] = target: T1, biotinylated recombinant human IL-12Rβ2; experiment: BLI, P.E., off-rate ranking

Binder	ELISA hIL-12RB2/control [1]	ELISA mIL-12RB2/control [2]	Response [3]	koff [3] [s⁻¹]
anti-IL-12Rβ2 VHH clone 3CRHS128 (clone ID 20432) (VHH, not shown: small tags and cut ends, periplasmic extract) VHH: QVQLQESGGGLVQPGGSLRLSCAASGFTFSTSGMHWFRQAPGKGLEWVSSIGATVDNSYYASSVKGRFTISRDNAKNTLYLLMNSLKSEDTAVYYCSKDPTGSSRGQGTQVTVSS	3.65	0.984	0.294	0.00274
anti-IL-12Rβ2 VHH clone 3CRH38 (clone ID 20381) (VHH, not shown: small tags and cut ends, periplasmic extract) VHH: QVQLQESGGGLVQAGGSLVLSCAASGSAALIFLMSWYRQAPGKQRELVAEVSRGGSTTYADSVEGRFTISRDNAKNIVDLQMNSLKPEDTAVYYCKADQNYGDSLRSSWGRGTQVTVSS	11.8	1.85	0.475	0.00413
anti-IL-12Rβ2 VHH clone 2CRH53 (clone ID 20366) (VHH, not shown: small tags and cut ends, periplasmic extract) VHH: QVQLQESGGGLVQAGGSLVLSCAASGSAALIFLMSWYRQAPGKQRELVAEVSRYGSTTYADSVEGRFTISRDNAKDIVDLQMNSLKPEDTAVYYCKADQYYGDSLRSSWGRGTQVTVSS	5.51	0.967	0.652	0.00598
anti-IL-12Rβ2 VHH clone 3CRHS2 (clone ID 20413) (VHH, not shown: small tags and cut ends, periplasmic extract) VHH: QVQLQESGGGLVQLGGSLTLSCAASGSAALIFLMSWYRQAPGKQRELVAEVSRYGSTTYADSVEGRFTISRDNAKNIVDLQMNSLKPEDTAVYYCKADQYYGDSLRSSWGRGTQVTVSS	5.59	1.01	0.5	0.00404
anti-IL-12Rβ2 VHH clone 3CAHS39 (clone ID 20393) (VHH, not shown: small tags and cut ends, periplasmic extract) VHH: QVQLQESGGGLVQAGGSLRLSCAASGRTINAYIMGWFRQAPGKEREFVAAVSGSGGSTYYADSVKGRFTISRDNAKNTVNLQMDNLRSEDTDVYYCAATYESVYLQNPGQYDYWGQGTQVTVSS	4.73	1.14	0.612	0.00508
anti-IL-12Rβ2 VHH clone 3CAHS43 (clone ID 20395) (VHH, not shown: small tags and cut ends, periplasmic extract) VHH: QVQLQESGGGSVQAGGSLRLSCAASGRTINAYIMGWFRQAPGKEREFVAAVSGSGGSTYYADSVKGRFTISRDNAKNTVNLQMDNLRSEDTDVYYCAATYESVYLRNPGQYDYWGQGTQVTVSS	8.23	1.31	0.605	0.00485
anti-IL-12Rβ2 VHH clone 3CAHS52 (clone ID 20396) (VHH, not shown: small tags and cut ends, periplasmic extract) VHH: QVQLQESGGGSVQAGGSLRLSCAASGRTINAYIMGWFRQAPGKEREFVAAVSGSGGSTYYADSVKGRFTISRDNAKNTVNLQMDNLRSEDTDVYYCAATYESVYLQNPGQYDYWGQGTQVTVSS	10	1.22	0.508	0.00422
anti-IL-12Rβ2 VHH clone 3CAHS53 (clone ID 20397) (VHH, not shown: small tags and cut ends, periplasmic extract) VHH: QVQLQESGGGLVEPGGSLRLSCAASGRTINAYIMGWFRQAPGKEREFVAAVSGSGGSTYYADSVKGRFTISRDSAKNTVNLQMDNLRSEDTDVYYCAATYESVYLQNPGQYDYWGQGTQVTVSS	6.58	1.1	0.47	0.00479
anti-IL-12Rβ2 VHH clone 3CAHS124 (clone ID 20400) (VHH, not shown: small tags and cut ends, periplasmic extract) VHH: QVQLQESGGGLVQPGGSLRLSCAASGRTINAYIMGWFRQAPGKEREFVAAVSGSGGSTYYADSVKGRFTISRDNAKNTVNLQMDNLRSEDTDVYYCAATYESVYLQNPGQYDYWGQGTQVTVSS	5.67	1	0.293	0.00324
anti-IL-12Rβ2 VHH clone 3CAHS150 (clone ID 20403) (VHH, not shown: small tags and cut ends, periplasmic extract) VHH: QVQLQESGGGSVQAGGSLRLSCAASGRTINAYVMGWFRQAPGKEREFVAAISGSGGSTYYADSVKGRFTISRDNAKNTVNLQMDNLRSEDTDVYYCAATYESVYLQNPGQYDYWGQGTQVTVSS	4.54	0.988	0.31	0.00369
anti-IL-12Rβ2 VHH clone 3CAHS170 (clone ID 20406) (VHH, not shown: small tags and cut ends, periplasmic extract) VHH: QVQLQESGGGLVQAGGSLRLSCVASGRTFSSYAMGWFRQGPGKEREFVAAISWSGVSIYYADSVKGRFTISRDNAKNTVYLQMNSLEPEDTAVYYCAGTEGAYTVAGGSTFGYDMDYWGKGTQVTVSS	5.87	0.945	0.515	0.00379
anti-IL-12Rβ2 VHH clone 2CAH27 (clone ID 20354) (VHH, not shown: small tags and cut ends, periplasmic extract) VHH: QVQLQESGGGSVQSGGSLRLSCVASGRTFSSYAMGWFRQGPGKEREFVAAISWSGVSIYYADSVKGRFTISRDNAKNTVYLQMNSLEPEDTAVYYCAGTEGAYTVAGGSTFGYDMDYWGKGTQVTVSS	3.84	1.05	0.482	0.00494
anti-IL-12Rβ2 VHH clone 3CAH48 (clone ID 20360) (VHH, not shown: small tags and cut ends, periplasmic extract) VHH: QVQLQESGGGLVQAGGSLRLSCAASGRTFSSYAMGWFRQGPGKEREFVAAISWSGVSTYYADSVKGRFTISRDNAKNTVYLQMNSLRPEDTAVYYCAATEGAYTVAGGSTFGYDMDYWGKGTQVTVSS	9.56	1.11	0.759	0.00443
anti-IL-12Rβ2 VHH clone 3CAHS142 (clone ID 20401) (VHH, not shown: small tags and cut ends, periplasmic extract) VHH: QVQLQESGGGLVQAGESLTLSCIASGVIKDYAMGWFRQAPGKEREFVAAISWSGVSIYYADSVKGRFTISRDNAKNTVYLQMNSLEPEDTAVYYCAGTEGAYTVAGGSTFGYDMDYWGKGTQVTVSS	4.98	1.07	0.352	0.00324
anti-IL-12Rβ2 VHH clone 3CRHS142 (clone ID 20434) (VHH, not shown: small tags and cut ends, periplasmic extract) VHH: QVQLQESGGGLVQAGGSLRLSCVSSQTLVGIEAMGWYRQAPGKQRELVALITLNGGTFYADSVKGRFTISRDVAEHMLYLEMNSLNPEDTAVYFCVAGVESDNEEPTYWGQGTQVTVSS	23.7	0.999	0.205	0.00275
anti-IL-12Rβ2 VHH clone 2CRHS4 (clone ID 20411) (VHH, not shown: small tags and cut ends, periplasmic extract) VHH: QVQLQESGGGLVQPGGSLRLSCVSSQTLVGIEAMGWYRQAPGKQRELVALITLNGGTFYADSVKGRFTISRDVAGHMLYLEMNSLNPEDTAVYFCVAGVESDNEEPTYWGQGTQVTVSS	12.5	1.07	0.279	0.00311
anti-IL-12Rβ2 VHH clone 3CRHS67 (clone ID 20424) (VHH, not shown: small tags and cut ends, periplasmic extract) VHH: QVQLQESGGGLVQAGGSLTLSCVSSQTLVGIEAMGWYRQAPGKQRELVALITLNGGTFYADSVKGRFTISRDVAEHMLYLEMNSLNPEDTAVYFCVAGVESDNEEPTYWGQGTQVTVSS	18.3	1.19	0.416	0.00443
anti-IL-12Rβ2 VHH clone 3CRHS156 (clone ID 20437) (VHH, not shown: small tags and cut ends, periplasmic extract) VHH: QVQLQESGGGLVQSGGSLRLSCVSSQTLVGIEAMGWYRQAPGKQRELVALITLNGGTFYADSVKGRFAISRDVAEHMLYLEMNSLNPEDTAVYFCVAGVESDNEEPTYWGQGTQVTVSS	24.5	1.03	0.282	0.00297
anti-IL-12Rβ2 VHH clone 3CRHS166 (clone ID 20439) (VHH, not shown: small tags and cut ends, periplasmic extract) VHH: QVQLQESGGGLVQSGGSLRLSCVSSQTLVGIEAMGWYRQAPGKQRELVALITLNGGTFYADSVKGRFTISRDVAEHMLYLEMNSLNPEDTAVYFCVAGVESDNEEPTYWGQGTQVTVSS	23.2	1.06	0.149	0.00247
anti-IL-12Rβ2 VHH clone 2CRH41 (clone ID 20365) (VHH, not shown: small tags and cut ends, periplasmic extract) VHH: QVQLQESGGGLVQPGGSLRLSCTASGFAFSSYWMYWVRQSPEKGFEWVSVVDTDGGITYYADSVKGRFTISRDNAKNTLYLQMNSLKPQDTALYYCARDRTTLEYTRTYYRTGQGTQVTVSS	3.8	1.64	0.493	0.00496
